Experimental data: patent EP0368684A1

Key:
[1] = molecular target: hen egg white lysozyme (hen) (UniProt P00698); test: fluorescence quench titration with lysozyme
[2] = molecular target: hen egg white lysozyme (hen) (UniProt P00698); test: fluorescence quench titration, VHLYS concentration from quantitative amino acid analysis; details: scale: mole of lysozyme per mole of VHLYS domain
[3] = molecular target: hen egg white lysozyme (hen) (UniProt P00698); test: calculated from the on-rate and off-rate of the stopped-flow analysis

Sequence of UniProt P00698 (P00698 19-147 limits assumed): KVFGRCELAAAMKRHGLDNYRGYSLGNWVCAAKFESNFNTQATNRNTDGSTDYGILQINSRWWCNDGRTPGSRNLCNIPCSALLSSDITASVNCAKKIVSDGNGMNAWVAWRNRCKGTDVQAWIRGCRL

Q: For “VHLYS domain (heavy chain variable domain of the D1.3 anti-lysozyme antibody)”, which Kd [1] is on record?
A: 12 nM

Q: What about the stoichiometry (mole of lysozyme per mole of VHLYS domain) [2] of the same substance?
A: 1.2

Q: What about the Kd [3] of the same substance?
A: 19 nM
